The target of the experiment is T1, chymotrypsin-treated recombinant P. falciparum SUB1 (P. falciparum, UniProt Q8I0V0 218-688).
T1 construct: subtilisin-like protease SUB1, P. falciparum, PF3D7_0507500; recombinant, chymotrypsin-treated; also called rPfSUB1; PfSUB1
T1 sequence: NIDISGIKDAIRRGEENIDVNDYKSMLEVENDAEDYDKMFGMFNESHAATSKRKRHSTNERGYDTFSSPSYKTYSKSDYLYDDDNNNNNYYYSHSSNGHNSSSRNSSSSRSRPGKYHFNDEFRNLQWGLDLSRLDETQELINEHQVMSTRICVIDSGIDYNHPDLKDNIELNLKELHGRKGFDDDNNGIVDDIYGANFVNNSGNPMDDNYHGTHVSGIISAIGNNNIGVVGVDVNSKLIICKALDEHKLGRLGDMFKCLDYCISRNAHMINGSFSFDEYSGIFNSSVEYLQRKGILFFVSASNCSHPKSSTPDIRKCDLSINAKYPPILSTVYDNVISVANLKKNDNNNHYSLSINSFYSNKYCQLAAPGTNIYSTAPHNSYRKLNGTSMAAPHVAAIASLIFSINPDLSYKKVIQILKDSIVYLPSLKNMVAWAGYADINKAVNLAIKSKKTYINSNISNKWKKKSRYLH
Nature of the experiment: enzyme inhibition kinetics (fluorogenic peptide substrate); rSUB1-ProM (7.81-250 nM final) added to ongoing hydrolysis of SERA4st1F-6R12 (0.1 µM, well below Km) by rPfSUB1 (0.045 U in 100 µl); 25 mM Tris-HCl pH 8.2, 25 mM CHAPS, 12 mM CaCl2; 21°C; apparent tight-binding inhibition constant, Ki(app) ~ Ki. As to conditions: both partners purified.

Where “and” joins values, the source holds several entries; their conditions need not be identical. Equal entries are not always repeated.

B1: recombinant Plasmodium falciparum SUB1-ProM (SUB1 propeptide mimic), GST-free (natural protein)
chain: QVTPAGTVLNSNSALISRRINRRKMKNCNNNDLLKVLKMETTYNELPAHNLLMSSKNDINKLFDYINKNEELSKLMNSCGTYVYLKYLGVVIFSIKENVQISHLSEFIQYLLNKNVCIEFNQNVML
notes: SUB1-ProM, P. falciparum 3D7, PF3D7_0507400, residues 28-153 of the 153-residue protein (lacks the predicted 27-residue signal peptide); synthetic gene; also called rSUB1-ProM; PfSUB1-ProM; source: E. coli BL21(R2), purified (Glutathione Sepharose 4B, PreScission cleavage, Superdex 200)
B1: the Ki is 5.67 nM and 5.34 nM.

For the origin of these results see publication PMC6993865 (Biochemical Journal, 2020).
